What was measured:
[1] = tested on: functional HyNaC heterotrimer; experiment: Screen of functional HyNaC heterotrimers in Xenopus oocytes for activation by Hydra-RFamides; type: cell-based, Hydra magnipapillata; details: 5 μM peptide; Xenopus oocytes
Experimental: We tested the function of the new HyNaCs by co-expression of different HyNaC subunit combinations in Xenopus oocytes. We screened for functional subunit combinations by application of 5 μM Hydra-RFamide I, a potent agonist of HyNaC2/3/5 [4]. When we expressed an individual HyNaC subunit we could never elicit currents. […] When HyNaC2 was part of the injected cRNA pool, however, Hydra-RFamide I elicited currents. Simultaneous expression of HyNaC2 with a single other HyNaC resulted only in a functional channel when we co-expressed HyNaC2 and HyNaC3; it was already known that HyNaC2 and HyNaC3 form a low-affinity peptide-gated channel.
Dashed line represents the zero current level. Amino acid sequences of Hydra-RFamides I to V are shown at the bottom. HyNaC, Hydra Na^+ channel.
Since Hydra-RFamide II had been shown previously to activate HyNaC2/3/5 [4], we tested Hydra-RFamides II to V for channel activation.
To study the biophysical properties of the new HyNaCs, cRNA of HyNaCs was synthesized in vitro (mMessage mMachine kit, Ambion, Austin, Texas, USA) and injected into Xenopus laevis oocytes of stage V and VI. After injection, oocytes were incubated for one to two days at 19°C in oocyte Ringer’s solution 2 (OR-2), which contained (in mM): 82.5 NaCl, 2.5 KCl, 1.0 Na2HPO4, 1.0 MgCl2, 1.0 CaCl2, 5.0 HEPES, 0.5 g/l PVP, 1,000 U/l penicillin and 10 mg/l streptomycin, NaOH was used to adjust pH to 7.3. Whole cell currents were recorded from defolliculated oocytes by two-electrode voltage-clamp (TEVC) using the amplifier TurboTec 03X (npi electronic GmbH, Tamm, Germany). Standard bath solution (in mM: 140 NaCl, 10 HEPES, 1.8 CaCl2 and 1.0 MgCl2. NaOH was used to adjust pH to 7.4.) was exchanged by a pump driven system combined with the oocyte testing carousel (OTC), which was controlled by the interface OTC-20 [53]. To control the OTC-20 and to record the data to the hard drive, the software CellWorks (version 5.1.1; npi electronic GmbH, Tamm, Germany) was used. Data were sampled at 0.1 to 1 kHz and filtered at 20 Hz. HyNaCs are permeable for Ca^2+, activating an endogenous CaCC [40]. Therefore, unless otherwise indicated, oocytes were injected with 50 nl of 20 mM EGTA 30 to 180 minutes before measurements. Reversal potentials and Ca^2+ permeabilities of HyNaCs were studied as described previously.

[2] = target: HyNaC2/11/5 (Hydra magnipapillata)
[3] = target: HyNaC2/3/5 (Hydra magnipapillata)
[4] = target: HyNaC2/9/7 (Hydra magnipapillata)
[5] = target: HyNaC2/4/6 (Hydra magnipapillata)
[6] = target: HyNaC2/3/6 (Hydra magnipapillata)
[7] = target: HyNaC2/3/7 (Hydra magnipapillata)
[8] = target: HyNaC2/10/7 (Hydra magnipapillata)

Hydra-RFamide V
activation of functional HyNaC heterotrimers (current elicited) [1]: did not elicit a current

Hydra-RFamide II (peptide)
EC50 of current activation by Hydra-RFamide II (two-electrode voltage clamp, Xenopus oocytes injected with EGTA) [2]: 950 nM
EC50 of current activation by Hydra-RFamide II (two-electrode voltage clamp, Xenopus oocytes injected with EGTA) [3]: 1610 nM
EC50 of current activation by Hydra-RFamide II (two-electrode voltage clamp, Xenopus oocytes injected with EGTA) [4]: 40 nM
current at the highest concentration of Hydra-RFamide II of the concentration-response series (two-electrode voltage clamp, EGTA-injected oocytes); concentrations and EC50 not given [5]: 4.7 μA
current at the highest concentration of Hydra-RFamide II of the concentration-response series (two-electrode voltage clamp, EGTA-injected oocytes); concentrations and EC50 not given [6]: 9.2 μA
current at the highest concentration of Hydra-RFamide II of the concentration-response series (two-electrode voltage clamp, EGTA-injected oocytes); concentrations and EC50 not given [7]: 11.8 μA
current at the highest concentration of Hydra-RFamide II of the concentration-response series (two-electrode voltage clamp, EGTA-injected oocytes); concentrations and EC50 not given [8]: 1.1 μA

Hydra-RFamide III
activation of functional HyNaC heterotrimers (current elicited) [1]: did not elicit a current

Hydra-RFamide IV
activation of functional HyNaC heterotrimers (current elicited) [1]: did not elicit a current

Source: paper PMC4212090, “The comprehensive analysis of DEG/ENaC subunits in Hydra reveals a large variety of peptide-gated channels, potentially involved in neuromuscular transmission” (BMC Biology, 2014)
